Measured values: paper PMC10397247
Blank lines part the entries; values can stand above or below the binder they belong to.

Legend:
P7mS = biological target: T1, P7mS; assay: two-hybrid library CC1; conditions: mean of both orientations;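 also: natural log of median RNA to DNA barcode read ratio; higher means stronger binding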
T1 chain: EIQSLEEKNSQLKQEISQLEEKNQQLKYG

P7 = biological target: T2, P7; assay: two-hybrid library CC1; conditions: mean of both orientations;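 also: natural log of median RNA to DNA barcode read ratio; higher means stronger binding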
T2 chain: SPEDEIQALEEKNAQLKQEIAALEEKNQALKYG

P6mS = biological target: T3, P6mS; assay: two-hybrid library CC1; conditions: mean of both orientations;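 also: natural log of median RNA to DNA barcode read ratio; higher means stronger binding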
T3 chain: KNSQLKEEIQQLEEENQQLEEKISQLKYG

P6SC1 = biological target: T4, P6SC1; assay: two-hybrid library CC1; conditions: mean of both orientations;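 also: natural log of median RNA to DNA barcode read ratio; higher means stronger binding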
T4 chain: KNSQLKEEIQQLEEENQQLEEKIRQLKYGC

P9 = biological target: T5, P9; assay: two-hybrid library CC1; conditions: mean of both orientations;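 also: natural log of median RNA to DNA barcode read ratio; higher means stronger binding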
T5 chain: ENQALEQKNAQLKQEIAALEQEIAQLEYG

P5mS = biological target: T6, P5mS; assay: two-hybrid library CC1;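 also: natural log of median RNA to DNA barcode read ratio; higher means stronger binding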
T6 chain: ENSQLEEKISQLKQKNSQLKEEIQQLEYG

P6 = biological target: T7, P6; assay: two-hybrid library CC1; conditions: mean of both orientations
T7 chain: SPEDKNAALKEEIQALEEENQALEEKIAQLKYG

P6SC2 = biological target: T8, P6SC2; assay: two-hybrid library CC1; conditions: mean of both orientations
T8 chain: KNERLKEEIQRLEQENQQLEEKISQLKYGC

P8mS = biological target: T9, P8mS; assay: two-hybrid library CC1; conditions: mean of both orientations
T9 chain: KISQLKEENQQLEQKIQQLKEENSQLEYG

P8 = biological target: T10, P8; assay: two-hybrid library CC1; conditions: mean of both orientations
T10 chain: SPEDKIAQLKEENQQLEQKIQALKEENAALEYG

4H_GCN4 = assay: two-hybrid library CCmax
4H510-AA = biological target: T11, 4H510-AA; assay: two-hybrid library CCmax; conditions: mean of both orientations
T11 chain: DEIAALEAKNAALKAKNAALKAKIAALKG

GCN2_T = assay: two-hybrid library CCmax
4H4038-AA = biological target: T12, 4H4038-AA; assay: two-hybrid library CCmax; conditions: mean of both orientations
T12 chain: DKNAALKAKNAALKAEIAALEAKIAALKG

4H337-AA = biological target: T13, 4H337-AA; assay: two-hybrid library CCmax
T13 chain: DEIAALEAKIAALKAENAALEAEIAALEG

4H3587-AA = biological target: T14, 4H3587-AA; assay: two-hybrid library CCmax; conditions: mean of both orientations
T14 chain: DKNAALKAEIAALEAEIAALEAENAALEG

4H_BCR = biological target: T15, 4H_BCR; assay: two-hybrid library CCmax; conditions: mean of both orientations
T15 chain: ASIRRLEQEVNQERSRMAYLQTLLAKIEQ

O14-AA = biological target: T16, O14-AA; assay: two-hybrid library CCmax; conditions: mean of both orientations
T16 chain: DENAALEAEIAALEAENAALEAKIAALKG

4H_APH = biological target: T17, 4H_APH; assay: two-hybrid library CCmax; conditions: mean of both orientations
T17 chain: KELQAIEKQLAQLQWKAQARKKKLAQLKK

4H3590-AA = biological target: T18, 4H3590-AA; assay: two-hybrid library CCmax; conditions: mean of both orientations
T18 chain: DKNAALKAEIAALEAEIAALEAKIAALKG

O11-AA = biological target: T19, O11-AA; assay: two-hybrid library CCmax; conditions: mean of both orientations
T19 chain: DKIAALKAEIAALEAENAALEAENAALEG

4H3625-AA = biological target: T20, 4H3625-AA; assay: two-hybrid library CCmax; conditions: mean of both orientations
T20 chain: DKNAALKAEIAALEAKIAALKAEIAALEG

4H3905-AA = biological target: T21, 4H3905-AA; assay: two-hybrid library CCmax; conditions: mean of both orientations
T21 chain: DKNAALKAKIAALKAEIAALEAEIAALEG

4H384-AA = biological target: T22, 4H384-AA; assay: two-hybrid library CCmax
T22 chain: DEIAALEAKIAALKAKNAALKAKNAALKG

4H43-AA = biological target: T23, 4H43-AA; assay: two-hybrid library CCmax; conditions: mean of both orientations
T23 chain: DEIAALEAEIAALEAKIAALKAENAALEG

O13-AA = biological target: T24, O13-AA; assay: two-hybrid library CCmax; conditions: mean of both orientations
T24 chain: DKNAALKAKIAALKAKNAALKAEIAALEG

4H451-AA = biological target: T25, 4H451-AA; assay: two-hybrid library CCmax; conditions: mean of both orientations
T25 chain: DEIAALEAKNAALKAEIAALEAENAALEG

4H_GCN4, sequence (chain, as listed by the source): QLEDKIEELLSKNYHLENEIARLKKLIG

Binder: ENSQLEEKISQLKQKNSQLKEEIQQLEYG [P5mS]
interaction score (P7mS): -2.67
interaction score (P7): -2.73
interaction score (P6mS): -0.205
interaction score (P6SC1): 0.104
interaction score (P9): -2.67
interaction score (P5mS): -3.02
interaction score (P6): 0.124
interaction score (P6SC2): 0.207
interaction score (P8mS): -2.74
interaction score (P8): -2.02

interaction score (4H_GCN4): -1.01
interaction score (4H510-AA): 1.23
interaction score (GCN2_T): -1.48
interaction score (4H4038-AA): 2.08
interaction score (4H337-AA): -0.119
interaction score (4H3587-AA): -1.2
interaction score (4H_BCR): -0.845
interaction score (O14-AA): 1.85
interaction score (4H_APH): -1.22
interaction score (4H3590-AA): 0.707
interaction score (O11-AA): -0.88
interaction score (4H3625-AA): -0.713
interaction score (4H3905-AA): -0.0231
interaction score (4H384-AA): 1.88
interaction score (4H43-AA): -0.783
interaction score (O13-AA): 0.869
interaction score (4H451-AA): -0.516
Binder: DEIAALEAKIAALKAENAALEAEIAALEG [4H337-AA]
